B1: Azoarcus group I ribozyme (parent)
chain: GUGCCUUGCGCCGGGAAACCACGCAAGGGAUGGUGUCAAAUUCGGCGAAACCUAAGCGCCCGCCCGGGCGUAUGGCAACGCCGAGCCAAGCUUCGGCGCCUGCGCCGAUGAAGGUGUAGAGACUAGACGGCACCCACCUAAGGCAAACGCUAUGGUGAAGGCAUAGUCCAGGGAGUGGCGAAAGUCACACAAACCGG

Variants of: B1
Assay: reverse-splicing fitness (ratio to wild type); higher = more active; in vitro selection; Mg2+ level not given
Summary of the method: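 An in vitro group I ribozyme library with randomized positions was T7-transcribed and gel-purified. In triplicate, 10 pmol RNA in EPPS pH 7.5 was reacted with 50 pmoles of a 30-nt RNA substrate for 1 h at 37 °C across several added MgCl2 levels (1–48 mM), then stopped with EDTA. Products were reverse transcribed from a substrate-complementary primer, PCR-amplified and sequenced (HiSeq 4000). Fitness is a variant's read proportion after selection over that before, normalised to wild type.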

With C82U A111C A120U A145C C150A C169G U176A as the variant, how does the reverse-splicing fitness read?
Its reverse-splicing fitness is 0.00308.

Which reverse-splicing fitness does the source give for C82U A111C A120U A145C C150A C169G U176C here?
Its reverse-splicing fitness is 0.00318.

For C82U A111C A120U A145U C150G U176G, which reverse-splicing fitness is on record?
Its reverse-splicing fitness is 0.00316.

Which reverse-splicing fitness does the source give for C82U A111C A120U A145U C150G U176C here?
Its reverse-splicing fitness is 0.00509.

With C82U A111C A120U A145U C150G U176A as the variant, how does the reverse-splicing fitness read?
The reverse-splicing fitness was 0.00354.

Which reverse-splicing fitness does the source give for C82U A111C A145C C150G C169A U176G here?
Its reverse-splicing fitness is 0.00657.

With C82U A111C A145C C150G C169A U176A as the variant, how does the reverse-splicing fitness read?
Its reverse-splicing fitness is 0.00873.

Which reverse-splicing fitness does the source give for C82U A111C A145C C150G C169A U176C here?
Its reverse-splicing fitness is 0.0077.

For C82U A111C A120U A145G C150A C169U U176A, which reverse-splicing fitness is on record?
Its reverse-splicing fitness is 0.00566.

Which reverse-splicing fitness does the source give for C82U A111C A120U A145G C150A C169U U176C here?
Its reverse-splicing fitness is 0.00385.

For C82U A111C A120U A145G C150A C169U U176G, which reverse-splicing fitness is on record?
The reverse-splicing fitness was 0.00293.

Which reverse-splicing fitness does the source give for C82U A111C A120U A145U C150G C169U here?
Its reverse-splicing fitness is 0.00311.

Which reverse-splicing fitness does the source give for C82U A111C A120U A145U C150G C169A here?
The reverse-splicing fitness was 0.00391.

With C82U A111C A120U A145U C150G C169G as the variant, how does the reverse-splicing fitness read?
Its reverse-splicing fitness is 0.00306.

For C82U A111C A145C C150G C169U U176G, which reverse-splicing fitness is on record?
Its reverse-splicing fitness is 0.00606.

For C82U A111C A145C C150G C169U U176A, which reverse-splicing fitness is on record?
The reverse-splicing fitness was 0.00919.

With C82U A111C A145C C150G C169U U176C as the variant, how does the reverse-splicing fitness read?
The reverse-splicing fitness was 0.0106.

Which reverse-splicing fitness does the source give for C82U A111C A145C C150A C169G U176G here?
Its reverse-splicing fitness is 0.00743.

With C82U A111C A145C C150A C169G U176C as the variant, how does the reverse-splicing fitness read?
Its reverse-splicing fitness is 0.0205.

For C82U A111C A145C C150A C169G U176A, which reverse-splicing fitness is on record?
The reverse-splicing fitness was 0.024.

Which reverse-splicing fitness does the source give for C82U A111C A145C C169A U176G here?
The reverse-splicing fitness was 0.00613.

With C82U A111C A145C C169A U176A as the variant, how does the reverse-splicing fitness read?
Its reverse-splicing fitness is 0.0127.

With C82U A111C A145C C169A U176C as the variant, how does the reverse-splicing fitness read?
The reverse-splicing fitness was 0.00939.

With C82U A111C A145G C150A C169G as the variant, how does the reverse-splicing fitness read?
Its reverse-splicing fitness is 0.00813.

For C82U A111C A145G C150A C169U, which reverse-splicing fitness is on record?
Its reverse-splicing fitness is 0.0103.

With C82U A111C A145G C150A C169A as the variant, how does the reverse-splicing fitness read?
Its reverse-splicing fitness is 0.0093.

For C82U A111C A145G C150A, which reverse-splicing fitness is on record?
The reverse-splicing fitness was 0.0325.

With C82U A111C A120U U176A as the variant, how does the reverse-splicing fitness read?
The reverse-splicing fitness was 0.00719.

With C82U A111C A120U U176G as the variant, how does the reverse-splicing fitness read?
Its reverse-splicing fitness is 0.00301.

With C82U A111C A120U U176C as the variant, how does the reverse-splicing fitness read?
Its reverse-splicing fitness is 0.0103.

For C82U A111C A120U A145C C150U C169A U176G, which reverse-splicing fitness is on record?
The reverse-splicing fitness was 0.00235.

With C82U A111C A120U A145C C150U C169A U176A as the variant, how does the reverse-splicing fitness read?
The reverse-splicing fitness was 0.00213.

Which reverse-splicing fitness does the source give for C82U A111C A120U A145C C150U C169A U176C here?
The reverse-splicing fitness was 0.0025.

Which reverse-splicing fitness does the source give for C82U A111C A120U A145G C150A here?
The reverse-splicing fitness was 0.00865.

Which reverse-splicing fitness does the source give for C82U A111C A120U A145G C150U here?
The reverse-splicing fitness was 0.0233.

Which reverse-splicing fitness does the source give for C82U A111C A120U A145G C150G here?
Its reverse-splicing fitness is 0.00805.

For C82U A111C A120U C150G C169U U176C, which reverse-splicing fitness is on record?
The reverse-splicing fitness was 0.00516.

With C82U A111C A120U C150G C169U U176A as the variant, how does the reverse-splicing fitness read?
The reverse-splicing fitness was 0.00421.

Which reverse-splicing fitness does the source give for C82U A111C A120U C150G C169U U176G here?
Its reverse-splicing fitness is 0.00265.

Which reverse-splicing fitness does the source give for C82U A111C A120U A145C U176C here?
The reverse-splicing fitness was 0.00705.

With C82U A111C A120U A145C U176G as the variant, how does the reverse-splicing fitness read?
Its reverse-splicing fitness is 0.00296.

For C82U A111C A120U A145C U176A, which reverse-splicing fitness is on record?
The reverse-splicing fitness was 0.00655.

Which reverse-splicing fitness does the source give for C82U A111C A120U A145U C150A here?
Its reverse-splicing fitness is 0.00535.

For C82U A111C A120U A145U C150G, which reverse-splicing fitness is on record?
The reverse-splicing fitness was 0.00613.

For C82U A111C A120U A145U C150U, which reverse-splicing fitness is on record?
Its reverse-splicing fitness is 0.0186.

Which reverse-splicing fitness does the source give for C82U A111C A145C C150G C169G U176A here?
Its reverse-splicing fitness is 0.00798.

With C82U A111C A145C C150G C169G U176C as the variant, how does the reverse-splicing fitness read?
Its reverse-splicing fitness is 0.00811.

With C82U A111C A145C C150G C169G U176G as the variant, how does the reverse-splicing fitness read?
The reverse-splicing fitness was 0.0058.

With C82U A111C A120U C150U C169G U176A as the variant, how does the reverse-splicing fitness read?
Its reverse-splicing fitness is 0.00387.

With C82U A111C A120U C150U C169G U176C as the variant, how does the reverse-splicing fitness read?
The reverse-splicing fitness was 0.00314.

With C82U A111C A120U C150U C169G U176G as the variant, how does the reverse-splicing fitness read?
Its reverse-splicing fitness is 0.00228.

Which reverse-splicing fitness does the source give for C82U A111C A120U A145U C150U U176C here?
The reverse-splicing fitness was 0.0089.

For C82U A111C A120U A145U C150U U176A, which reverse-splicing fitness is on record?
The reverse-splicing fitness was 0.00562.

With C82U A111C A120U A145U C150U U176G as the variant, how does the reverse-splicing fitness read?
The reverse-splicing fitness was 0.0027.

For C82U A111C A120U A145U C150A C169U, which reverse-splicing fitness is on record?
Its reverse-splicing fitness is 0.00262.

With C82U A111C A120U A145U C150A C169A as the variant, how does the reverse-splicing fitness read?
The reverse-splicing fitness was 0.00298.

For C82U A111C A120U A145U C150A C169G, which reverse-splicing fitness is on record?
Its reverse-splicing fitness is 0.00265.

Which reverse-splicing fitness does the source give for C82U A111C A145C C150U C169U U176A here?
Its reverse-splicing fitness is 0.0154.

Which reverse-splicing fitness does the source give for C82U A111C A145C C150U C169U U176C here?
Its reverse-splicing fitness is 0.00946.

For C82U A111C A145C C150U C169U U176G, which reverse-splicing fitness is on record?
Its reverse-splicing fitness is 0.00631.

With C82U A111C A120U C150A C169U U176G as the variant, how does the reverse-splicing fitness read?
Its reverse-splicing fitness is 0.00241.

Which reverse-splicing fitness does the source give for C82U A111C A120U C150A C169U U176C here?
Its reverse-splicing fitness is 0.0037.

With C82U A111C A120U C150A C169U U176A as the variant, how does the reverse-splicing fitness read?
The reverse-splicing fitness was 0.00699.

With C82U A111C A120U A145U C150U C169A U176A as the variant, how does the reverse-splicing fitness read?
The reverse-splicing fitness was 0.00306.

For C82U A111C A120U A145U C150U C169A U176G, which reverse-splicing fitness is on record?
The reverse-splicing fitness was 0.00229.

With C82U A111C A120U A145U C150U C169A U176C as the variant, how does the reverse-splicing fitness read?
Its reverse-splicing fitness is 0.00282.

For C82U A111C A120U A145G C150U C169G U176A, which reverse-splicing fitness is on record?
Its reverse-splicing fitness is 0.00475.

With C82U A111C A120U A145G C150U C169G U176C as the variant, how does the reverse-splicing fitness read?
Its reverse-splicing fitness is 0.00346.

Which reverse-splicing fitness does the source give for C82U A111C A120U A145G C150U C169G U176G here?
The reverse-splicing fitness was 0.0025.

With C82U A111C A120U A145G C150U C169A as the variant, how does the reverse-splicing fitness read?
The reverse-splicing fitness was 0.00649.

For C82U A111C A120U A145G C150U C169U, which reverse-splicing fitness is on record?
Its reverse-splicing fitness is 0.00521.

For C82U A111C A120U A145G C150U C169G, which reverse-splicing fitness is on record?
The reverse-splicing fitness was 0.00549.

Which reverse-splicing fitness does the source give for C82U A111C A145C C150G C169A here?
Its reverse-splicing fitness is 0.00742.

For C82U A111C A145C C150G C169U, which reverse-splicing fitness is on record?
The reverse-splicing fitness was 0.00936.

For C82U A111C A145C C150G C169G, which reverse-splicing fitness is on record?
Its reverse-splicing fitness is 0.00696.

With C82U A111C A120U C150U C169U U176G as the variant, how does the reverse-splicing fitness read?
The reverse-splicing fitness was 0.00197.

Which reverse-splicing fitness does the source give for C82U A111C A120U C150U C169U U176A here?
Its reverse-splicing fitness is 0.00612.

With C82U A111C A120U C150U C169U U176C as the variant, how does the reverse-splicing fitness read?
The reverse-splicing fitness was 0.00387.

With C82U A111C A145C C150U as the variant, how does the reverse-splicing fitness read?
Its reverse-splicing fitness is 0.0562.

For C82U A111C A145C C150G, which reverse-splicing fitness is on record?
The reverse-splicing fitness was 0.024.

For C82U A111C A145C C150A, which reverse-splicing fitness is on record?
Its reverse-splicing fitness is 0.0154.

With C82U A111C A120U C150A C169G U176G as the variant, how does the reverse-splicing fitness read?
Its reverse-splicing fitness is 0.00237.

Which reverse-splicing fitness does the source give for C82U A111C A120U C150A C169G U176C here?
Its reverse-splicing fitness is 0.00392.

For C82U A111C A120U C150A C169G U176A, which reverse-splicing fitness is on record?
The reverse-splicing fitness was 0.00492.
